Test [1] addresses anti-FXIa antibody 076D-M007-H04-CDRL3-N110D. In words: cell-based or functional assay.
Test [2] has the same target. The test is described as follows: ELISA, 076D-M007-H04-CDRL3-N110D coated at 1 µg/ml, anti-human lambda light chain-peroxidase detection. Background: An ELISA detects its analyte on a solid surface through an enzyme-linked reagent.

Where a chain is given by its changes, count along the chain named.

B1: TPP-8243 (antibody, human IgG1, lambda, V domains shown)
VH: EVQLLESGGGLVQPGGSLRLSCAASGFTFSNYGIHWVRQAPGKGLEWVSAIGTGGDTYYADSVMGRFTISRDNSKNTLYLQMNSLRAEDTAVYYCARDRGYYDILTGLYDYWGQGTLVTVSS
VL: QSVLTQPPSASGTPGQRVTISCSGSSSNIGNNAVNWYQQLPGTAPKLLIYGNYHRPSGVPDRFSGSKSGTSASLAISGLRSEDEADYYCSSYAGSNNWVFGGGTKLTVLG
In test [1], B1 yielded a Neutralizing activity, IC50 (biochemical FXIa assay) of 1.13 nM; an aPTT 1.5 X of 0.3 µM; an aPTT 1.5 X (EC150) of 0.3 µM; a biochemical FXIa assay IC 50 of 1.1 nM. Further, in test [1], the plasma based FXIa assay, IC50 turned out to be 5 nM and the plasma based assay IC 50 came out at 5 nM. Moreover, in test [2], the EC50 (usually the concentration giving half of the maximal effect) was determined as 0.256 nM.

B2: TPP-8246 (antibody, human IgG1, lambda, V domains shown)
VH: EVQLLESGGGLVQPGGSLRLSCAASGFTFSSYSMNWVRQAPGKGLEWVSTISGSGGITHYADSVKGRFTISRDNSKNTLYLQMNSLRAEDTAVYYCARDRGNRVAARPAFDYWGQGTLVTVSS
VL: QSVLTQPPSASGTPGQRVTISCTESSSNTGAGYDVHWYQQLPGTAPKLLIYGNTNRPSGVPDRFSGSKSGTSASLAISGLRSEDEADYYCASWDDNLGGWVFGGGTKLTVLG
As for B2, in test [1], the Neutralizing activity, IC50 (biochemical FXIa assay) is > 1000 nM. Also, in test [2], the EC50 came out at 0.477 nM.

B3: TPP-8238 (antibody, human IgG1, lambda, V domains shown)
VH: EVQLLESGGGLVQPGGSLRLSCAASGFTFSSYSMNWVRQAPGKGLEWVASISGSGANTYFADTVKGRFTISRDNSKNTLYLQMNSLRAEDTAMYYCARHGQVRLNYGSPTTVYNWFDRWGQGTLVTVSS
VL: B2 VL with E24G, T29I, T54S, S92A, D94H, N96S, G98N
Regarding B3, the Neutralizing activity (biochemical FXIa assay) (% inhibition at 1.00E-06 M) in test [1] came to 75. Moreover, the 50% effective concentration (EC50) in test [2] came to 0.485 nM.

B4: TPP-8240 (antibody, human IgG1, lambda, V domains shown)
VH: EVQLLESGGGLVQPGGSLRLSCAASGFTFSSYAMSWVRQAPGKGLEWVAVISYDGSNKHYADSVKGRFTISRDNSKNTLYLQMNSLRAEDTAVYYCARDSMVRGKIFDYWGQGTLVTVSS
VL: QSVLTQPPSASGTPGQRVTISCSGSSSNIGNNAVNWYQQLPGTAPKLLIYEDNKRPSGVPDRFSGSKSGTSASLAISGLRSEDEADYYCMIWHSSAWVFGGGTKLTVLG
B4: the Neutralizing activity, IC50 (biochemical FXIa assay) in test [1] was > 1000 nM. In test [2], this molecule returned a half-maximal effective concentration (EC50) of 0.216 nM.

B5: TPP-8236 (antibody, human IgG1, lambda, V domains shown)
VH: EVQLLESGGGLVQPGGSLRLSCAASGFTFSDYYMNWVRQAPGKGLEWVSTISGTGAAAFYADSVRGRFTISRDNSKNTLYLQMNSLRAEDTAVYYCARDQYLTGGAFDIWGQGTLVTVSS
VL: QSVLTQPPSASGTPGQRVTISCSGSSSNIGNNAVNWYQQLPGTAPKLLIYGNSNRPSGVPDRFSGSKSGTSASLAISGLRSEDEADYYCSSYRGSSTLVVFGGGTKLTVLG
As for B5, the Neutralizing activity, IC50 (biochemical FXIa assay) in test [1] is > 1000 nM. In addition, the EC50 in test [2] was 0.484 nM.

(Values after patent US20210395390A1.)
